Target: Mlh1-Pms1 DLDMMR (Saccharomyces cerevisiae (yeast; …, UniProt P38920;P14242 1-347+374-769;1-436+488-873, internal_change;internal_change)
Assay: filter binding

B1: 49-mer homoduplex AO3142/AO3144 (dsDNA)
DNA 1: GGGTCAACGTGGGCAAAGATGTCCTAGCAAGTCAGAATTCGGTAGCGTG
DNA 2: CACGCTACCGAATTCTGACTTGCTAGGACATCTTTGCCCACGTTGACCC
B1: binds.

Source: article doi:10.1101/475152
